Source: patent US12534531 (MacroGenics, dated 2026)

B1: hPD-1 mAb 9 (1.1), constant region not named where tested (antibody, V domains shown)
VH: EVQLVESGGGLVRPGGSLKLSCAASGFTFSSYLVSWVRQAPGKGLEWVATISGGGGNTYYSDSVKGRFTISRDNAKNSLYLQMNSLRAEDTATYYCARYGFDGAWFAYWGQGTLVTVSS
VL: DIQMTQSPSSLSASVGDRVTITCRASENIYSYLAWYQQKPGKAPKLLIYNAKTLAAGVPSRFSGSGSGTDFTLTISSLQPEDFATYYCQHHYAVPWTFGQGTKLEIK
B2: PD-1 mAb 8 (antibody, V domains shown)
VH: EGQLQQSGPELVKPGASVKISCKASGYTFTDYYMNWVKQNHGKSLEWIGDINPKNGDTHYNQKFKGEATLTVDKSSTTAYMELRSLTSEDSAVYYCASDFDYWGQGTTLTVSS
VL: DVVMTQTPLSLPVGLGDQASISCRSSQTLVYSNGNTYLNWFLQKPGQSPKLLIYKVSNRFSGVPDRFSGSGSGTDFTLKISRVEAEDLGVYFCSQSTHVPFTFGSGTKLEIK
notes: Murine monoclonal antibody
B3: hPD-1 mAb 15 IgG1 (AA) (antibody, V domains shown)
VH: EVQLVESGGGLVRPGGSLRLSCAASGFTFSSYLISWVRQAPGKGLEWVAAISGGGADTYYADSVKGRFTISRDNAKNSLYLQMNSLRAEDTATYYCARRGTYAMDYWGQGTLVTVSS
VL: DIQMTQSPSSLSASVGDRVTITCLASQTIGTWLAWYQQKPGKAPKLLIYAATSLADGVPSRFSGSGSGTDFTFTISSLQPEDFATYYCQQLYSIPWTFGQGTKLEIKR
B4: hPD-1 mAb 15, constant region not named where tested (antibody, V domains shown)
VH: EVQLVESGGGLVRPGGSLRLSCAASGFTFSSYLISWVRQAPGKGLEWVAAISGGGADTYYADSVKGRFTISRDNAKNSLYLQMNSLRAEDTATYYCARRGTYAMDYWGQGTLVTVSS
VL: DIQMTQSPSSLSASVGDRVTITCLASQTIGTWLAWYQQKPGKAPKLLIYAATSLADGVPSRFSGSGSGTDFTFTISSLQPEDFATYYCQQLYSIPWTFGQGTKLEIK
notes: also called humanized PD-1 mAb 15
B5: PD-1 mAb 12 (antibody, V domains shown)
VH: QGHLQQSGAELVRPGASVTLSCKASGFTFTDYEMHWVKQTPVHGLEWIGTIDPETGGTAYNQKFKGKAILTVDKSSTTTYMELRSLTSEDSAVFYCSRERITTVVEGAYWYFDVWGTGTTVTVSS
VL: DVLMTQTPLSLPVSLGDQASISCRSSQNIVHSNGNTYLEWYLQKPGQSPKLLICKVSTRFSGVPDRFSGSGSGTDFTLKISRVEAEDLGVYYCFQGSHVPYTFGGGTKLEIK
notes: Murine monoclonal antibody
B6: hPD-1 mAb 2 IgG1 (AA) (antibody, V domains shown)
VH: EVQLVESGGGLVQPGGSLRLSCAASGFVFSSFGMHWVRQAPGKGLEWVAYISSGSMSISYADTVKGRFTISRDNAKNTLYLQMNSLRTEDTALYYCASLSDYFDYWGQGTTVTVSS
VL: DVVMTQSPLSLPVTLGQPASISCRSSQSLVHSTGNTYLHWYLQKPGQSPQLLIYRVSNRFSGVPDRFSGSGSGTDFTLKISRVEAEDVGVYYCSQTTHVPWTFGQGTKLEIKR
B7: hPD-1 mAb 2, constant region not named where tested (antibody, V domains shown)
VH: EVQLVESGGGLVQPGGSLRLSCAASGFVFSSFGMHWVRQAPGKGLEWVAYISSGSMSISYADTVKGRFTISRDNAKNTLYLQMNSLRTEDTALYYCASLSDYFDYWGQGTTVTVSS
VL: DVVMTQSPLSLPVTLGQPASISCRSSQSLVHSTGNTYLHWYLQKPGQSPQLLIYRVSNRFSGVPDRFSGSGSGTDFTLKISRVEAEDVGVYYCSQTTHVPWTFGQGTKLEIK
notes: also called humanized PD-1 mAb 2
B8: PD-1 mAb 10 (antibody, V domains shown)
VH: EVILVESGGGLVKPGGSLKLSCAASGFTFSNYLMSWVRQTPEKRLEWVASISGGGSNIYYPDSVKGRFTISRDNAKNTLYLQMNSLRSEDTALYYCARQELAFDYWGQGTTLTVSS
VL: DIQMTQTTSSLSASLGDRVTISCRTSQDISNFLNWYQQKPDGTIKLLIYYTSRLHSGVPSRFSGSGSGTDYSLTISNLEQEDIATYFCQQGSTLPWTFGGGTKLEII
notes: Murine monoclonal antibody
B9: PD-1 mAb A IgG1 (AA) (antibody, V domains shown)
VH: QVQLVESGGGVVQPGRSLRLDCKASGITFSNSGMHWVRQAPGKGLEWVAVIWYDGSKRYYADSVKGRFTISRDNSKNTLFLQMNSLRAEDTAVYYCATNDDYWGQGTLVTVSS
VL: EIVLTQSPATLSLSPGERATLSCRASQSVSSYLAWYQQKPGQAPRLLIYDASNRATGIPARFSGSGSGTDFTLTISSLEPEDFAVYYCQQSSNWPRTFGQGTKVEIK
B10: PD-1 mAb A (nivolumab), constant region not named where tested (antibody, V domains shown)
VH: QVQLVESGGGVVQPGRSLRLDCKASGITFSNSGMHWVRQAPGKGLEWVAVIWYDGSKRYYADSVKGRFTISRDNSKNTLFLQMNSLRAEDTAVYYCATNDDYWGQGTLVTVSS
VL: EIVLTQSPATLSLSPGERATLSCRASQSVSSYLAWYQQKPGQAPRLLIYDASNRATGIPARFSGSGSGTDFTLTISSLEPEDFAVYYCQQSSNWPRTFGQGTKVEIK
notes: also called 5C4; BMS-936558
B11: PD-1 mAb 11 (antibody, V domains shown)
VH: EVQLQQSGTVLARPGASVKMSCKTSGYTFTGYWMHWVKQRPGQGLKWMGAIYPGNSDTHYNQKFKGKAKLTAVTSASTAYMELSSLTNEDSAIYYCTTGTYSYFDVWGTGTTVTVSS
VL: DILLTQSPAILSVSPGERVSFSCRASQSIGTSIHWYQHRTNGSPRLLIKYASESISGIPSRFSGSGSGTDFTLSINSVESEDIADYYCQQSNSWLTFGAGTKLELK
notes: Murine monoclonal antibody
B12: PD-1 mAb 13 (antibody, V domains shown)
VH: EVMLVESGGGLVKPGGSLKLSCAASGFTFSSHTMSWVRQTPEKRLEWVATISGGGSNIYYPDSVKGRFTISRDNAKNTLYLQMSSLRSEDTALYYCARQAYYGNYWYFDVWGTGTTVTVSS
VL: DIQMTQSPATQSASLGESVTITCLASQTIGTWLAWYQQKPGKSPQLLIYAATSLADGVPSRFSGSGSGTKFSFKISSLQAEDFVSYYCQQLDSIPWTFGGGTKLEIK
notes: Murine monoclonal antibody
B13: PD-1 mAb 15 (antibody, V domains shown)
VH: EVMLVESGGGLVKPGGSLKLSCAASGFIFSSYLISWVRQTPEKRLEWVAAISGGGADTYYADSVKGRFTISRDNAKNTLYLQMSSLRSEDTALYYCTRRGTYAMDYWGQGTSVTVSS
VL: DIQMTQSPASQSASLGESVTITCLASQTIGTWLAWYQQKPGKSPQLLIYAATSLADGVPSRFSGSGSGTKFSFKISSLQAEDFVNYYCQQLYSIPWTFGGGTKLEIK
notes: Murine monoclonal antibody
B14: hPD-1 mAb 7 (1.1) IgG1 (AA) (antibody, V domains shown)
VH: QVQLVQSGAEVKKPGASVKVSCKASGYSFTSYWMNWVRQAPGQGLEWIGVIHPSDSETWLDQKFKDRVTITVDKSTSTAYMELSSLRSEDTAVYYCAREHYGTSPFAYWGQGTLVTVSS
VL: EIVLTQSPATLSLSPGERATLSCRANESVDNYGMSFMNWFQQKPGQPPKLLIHAASNQGSGVPSRFSGSGSGTDFTLTISSLEPEDFAVYFCQQSKEVPYTFGGGTKVEIKR
notes: VH1 with VL1
B15: hPD-1 mAb 7 (1.2), constant region not named where tested (antibody, V domains shown)
VH: QVQLVQSGAEVKKPGASVKVSCKASGYSFTSYWMNWVRQAPGQGLEWIGVIHPSDSETWLDQKFKDRVTITVDKSTSTAYMELSSLRSEDTAVYYCAREHYGTSPFAYWGQGTLVTVSS
VL: EIVLTQSPATLSLSPGERATLSCRASESVDNYGMSFMNWFQQKPGQPPKLLIHAASNQGSGVPSRFSGSGSGTDFTLTISSLEPEDFAVYFCQQSKEVPYTFGGGTKVEIK
B16: PD-1 mAb 14 (antibody, V domains shown)
VH: QVQLQQPGAELVKPGASVKMSCKASGYNFISYWITWVKQRPGQGLQWIGNIYPGTDGTTYNEKFKSKATLTVDTSSSTAYMHLSRLTSEDSAVYYCATGLHWYFDVWGTGTTVTVSS
VL: DIVMTQSQKFMSTSVGDRVSVTCKASQSVGTNVAWYQQKPGQSPKALIYSASSRFSGVPDRFTGSGSGTDFTLTISNVQSEDLAEYFCQQYNSYPYTFGGGTKLEIK
notes: Murine monoclonal antibody

Assays:
[1] = molecular target: T1, soluble cynomolgus monkey PD-1 (scyno PD-1 hFc) cleaved to remove Fc portion (cynomolgus monkey, UniProt B0LAJ3 25-170); test: Biacore, mAb captured on Protein A, analyte scyno PD-1 hFc cleaved of Fc
T1 sequence (B0LAJ3 entry or part of it limits assumed): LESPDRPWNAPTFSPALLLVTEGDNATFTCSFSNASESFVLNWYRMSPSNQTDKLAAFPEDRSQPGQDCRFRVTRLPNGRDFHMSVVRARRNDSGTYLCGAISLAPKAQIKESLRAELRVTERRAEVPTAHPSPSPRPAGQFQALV

[2] = molecular target: T2, soluble human PD-1 (the extracellular domain of human PD-1 fused to a His tag) (human, UniProt Q15116 25-170); test: Biacore, mAb captured on Protein A, analyte shPD-1 His
T2 construct: also called shPD-1 His; shPD-1-His; not shown: His tag
T2 sequence (Q15116 25-170): as the sequence (B0LAJ3 entry or part of it limits assumed) above, with E2D, A10P, L19V, A35T, R75Q, A144T counted along it

[3] = molecular target: T3, soluble cynomolgus monkey PD-1 (the extracellular domain of cynomolgus monkey PD-1 fused to a human Fc Region) (cynomolgus monkey, UniProt B0LAJ3 25-170); test: ELISA: scyno-PD-1-TEV-Fc coated at 1 ug/ml, goat anti-mouse IgG (H+L) detection, RLU
T3 construct: also called scyno-PD1 Fc; scynoPD-1-hFc; not shown: Human Fc Region and any linker or cleavage site between the extracellular domain and the Fc
T3 sequence (B0LAJ3 entry or part of it limits assumed): as the sequence (B0LAJ3 entry or part of it limits assumed) above

[4] = molecular target: T4, soluble human PD-1 (the extracellular domain of human PD-1 fused to a human Fc Region) (human, UniProt Q15116 25-170); test: ELISA: shPD-1 hFc coated at 0.5 ug/ml, goat anti-mouse IgG (H+L) detection, RLU
T4 construct: whole entry named; also called shPD-1 hFc; shPD-1-human Fc; not shown: human Fc Region
T4 sequence (Q15116 25-170): as the sequence (B0LAJ3 entry or part of it limits assumed) above, with E2D, A10P, L19V, A35T, R75Q, A144T counted along it

[5] = molecular target: T2, soluble human PD-1 (the extracellular …); test: ELISA: shPD-1 His coated at 0.5 ug/ml, goat anti-mouse IgG (H+L) detection, RLU
[6] = molecular target: T5, human PD-1 expressed on the surface of cells (NSO cells expressing human PD-1; MNFAT-luc2/PD-1 Jurkat cells) (human, UniProt Q15116 21-288); test: FACS blocking on NSO cells expressing human PD-1, 1:4 dilutions, MFI; blocked ligand: biotinylated sPD-L1, streptavidin-PE
T5 construct: also called cell surface PD-1; PDCD1 transfected NSO cells expressing PD-1
T5 sequence (Q15116 21-288): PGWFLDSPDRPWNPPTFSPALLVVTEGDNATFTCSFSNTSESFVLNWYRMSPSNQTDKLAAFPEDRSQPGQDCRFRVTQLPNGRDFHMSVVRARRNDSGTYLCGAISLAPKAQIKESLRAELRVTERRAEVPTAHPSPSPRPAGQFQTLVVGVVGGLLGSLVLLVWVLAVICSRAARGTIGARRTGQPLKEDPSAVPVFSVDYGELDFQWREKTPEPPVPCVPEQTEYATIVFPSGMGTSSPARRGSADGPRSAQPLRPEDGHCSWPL

[7] = molecular target: T5, human PD-1 expressed on the surface of …; test: FACS blocking on NSO cells expressing human PD-1, 1:4 dilutions, MFI; blocked ligand: biotinylated sPD-L2, streptavidin-PE
[8] = molecular target: T5, human PD-1 expressed on the surface of …; test: FACS saturation binding on NSO cells expressing human PD-1, goat anti-human-APC, MFI, 1:4 dilutions
[9] = molecular target: T1, soluble cynomolgus monkey PD-1 (scyno …); test: Biacore, mAb captured on F(ab)2 goat anti-human Fc, analyte scyno PD-1 hFc cleaved of Fc

Binder	Kd [1] [nM]	Kd [2] [nM]	binding result [3]	binding result [4]	binding result [5]	further results
B1	73.3	36.1	–	–	–	–
B2	–	–	binds	binds	binds	–
B3	–	–	–	–	–	IC50 (read off the curve) [6]: ~0.04 ug/test; IC50 (read off the curve) [7]: ~0.09 ug/test
B4	78.3	13.3	–	–	–	–
B5	–	–	binds	binds	binds	–
B6	–	–	–	–	–	EC50 (read off the curve) [8]: ~0.5 µg/mL; IC50 (read off the curve) [6]: ~0.04 ug/test; IC50 (read off the curve) [7]: ~0.1 ug/test
B7	17	5	–	–	–	–
B8	–	–	binds	binds	binds	–
B9	–	–	–	–	–	Kd [9]: 5.6 nM
B10	6.9	–	–	–	–	–
B11	–	–	–	binds	–	EC50 (read off the curve) [3]: ~0.2 µg/mL; EC50 (read off the curve) [5]: ~0.2 µg/mL
B12	–	–	binds	binds	binds	–
B13	40.7	2.9	binds	binds	–	–
B14	–	–	–	–	–	EC50 (read off the curve) [8]: ~0.2 µg/mL; IC50 (read off the curve) [6]: ~0.01 ug/test; IC50 (read off the curve) [7]: ~0.01 ug/test
B15	1.7	0.39	–	–	–	–
B16	–	–	binds	binds	binds	–
